Data: publication PMC10981947
Blank lines part the entries; values can stand above or below the molecule they belong to.

Legend:
[1] = target: LeuT-AA, dimer interface mutant of LeuT (F488A and Y489A), C-terminally GFP-tagged
[2] = target: TrkA^ECD+TM, truncation mutant of TrkA containing the extracellular and transmembrane domains, C-terminally GFP-tagged
[3] = target: TrkA^ECD+TM, truncation mutant of TrkA containing the extracellular and transmembrane domains, C-terminally GFP-tagged; remark: listed apart in the source
[4] = target: TrkA^TM, truncation mutant of TrkA containing only the transmembrane domain, C-terminally GFP-tagged
[5] = target: sugar transporter SemiSWEET, C-terminally GFP-tagged
[6] = target: T1, potassium ion channel KcsA, C-terminally GFP-tagged, P0A334; details: remark: other sources report otherwise
T1 chain: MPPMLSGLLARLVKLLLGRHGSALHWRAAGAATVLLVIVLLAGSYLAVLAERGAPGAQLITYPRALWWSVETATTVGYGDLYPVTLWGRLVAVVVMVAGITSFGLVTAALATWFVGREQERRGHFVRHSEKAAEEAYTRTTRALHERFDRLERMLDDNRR

Molecule: LeuT-AA, dimer interface mutant of LeuT (F488A and Y489A), C-terminally GFP-tagged (natural protein)
percent dimer [1]: 36% | percent monomer [1]: 53%

Molecule: TrkA^TM, truncation mutant of TrkA containing only the transmembrane domain, C-terminally GFP-tagged (domain or fragment)
percent dimer (no NGF) [4]: 35% | percent higher-order oligomers (no NGF) [4]: 2% | percent monomer (no NGF) [4]: 60%

B1: potassium ion channel KcsA, C-terminally GFP-tagged, P0A334 1-160 (natural protein)
chain: T1 chain
stoichiometry N [6]: 4

Further lines, results first:

percent dimer (NGF-treated, fraction 1) [2]: 47% | percent higher-order oligomers (NGF-treated, fraction 1) [2]: 30% | percent monomer (NGF-treated, fraction 1) [2]: 22% | percent dimer (no NGF) [3]: 40% | percent higher-order oligomers (no NGF) [3]: 5% | percent monomer (no NGF) [3]: 55%
Molecule: TrkA^ECD+TM, truncation mutant of TrkA containing the extracellular and transmembrane domains, C-terminally GFP-tagged (domain or fragment)

stoichiometry N [5]: 2
Molecule: sugar transporter SemiSWEET, C-terminally GFP-tagged (natural protein)
